Reference: patent US20030059862A1 (Human Genome Sciences, published 2003)

T1: biotinylated APRIL (Homo sapiens (Human), UniProt O75888 105-250, biotinylated using NHS-biotin at a molar ratio of 20:1 biotin:APRIL)
T1 construct: also called bio-APRIL
T1 sequence: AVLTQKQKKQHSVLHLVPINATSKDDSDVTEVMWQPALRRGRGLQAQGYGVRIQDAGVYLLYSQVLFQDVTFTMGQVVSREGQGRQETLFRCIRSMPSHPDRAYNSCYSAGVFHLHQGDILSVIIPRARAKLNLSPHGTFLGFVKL

T2: TACI (Homo sapiens (Human), UniProt O14836 1-154, limits assumed)
T2 sequence: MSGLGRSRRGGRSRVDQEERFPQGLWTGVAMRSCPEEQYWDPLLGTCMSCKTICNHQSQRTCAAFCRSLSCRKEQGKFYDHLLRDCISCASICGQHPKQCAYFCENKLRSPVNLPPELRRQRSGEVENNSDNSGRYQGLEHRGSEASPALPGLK

T3: LIGHT (Homo sapiens (Human), UniProt O43557 83-240, limits assumed)
T3 chain: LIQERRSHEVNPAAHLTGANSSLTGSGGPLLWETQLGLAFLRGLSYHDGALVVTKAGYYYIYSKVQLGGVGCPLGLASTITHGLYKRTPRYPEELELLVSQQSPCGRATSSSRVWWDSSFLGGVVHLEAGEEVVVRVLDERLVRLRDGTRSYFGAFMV

T4: BCMA (Homo sapiens (Human), UniProt Q02223 1-48, limits assumed)
T4 chain: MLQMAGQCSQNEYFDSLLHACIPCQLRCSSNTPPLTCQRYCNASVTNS

T5: TACI fusion protein (Homo sapiens (Human), UniProt O14836 1-154)
T5 construct: also called immobilized receptor
T5 sequence: T2 sequence

T6: BCMA fusion protein (Homo sapiens (Human), UniProt Q02223 1-48)
T6 construct: also called immobilized receptor
T6 chain: T4 chain

B1: A027H08 (scFv)
scFv: QVQLQQSGAEVKKPGSSVKVSCKASGGTFSSYAISWVRQTPGQGLEWMGGIIPIFGAANYAQKFQGRVTITADESTSTAHMELSSLRSEDTAVYYCARGISGGMDVWGKGTLVTVSSGGGSGGGGSGGGGSDIQMTQSPSTLSASIGDRVTITCRASEGIYHWLAWYQQKPGKAPKLLIYKASSLASGAPSRFSGSGSGTDFTLTISSLQPDDFATYYCQQYSNYPLTFGGGTKLEIKR
B2: A019C11 (scFv)
scFv: EVQLVQSGAEVKKPGASVKVSCKTSGYTFTDNYMHWVRQAPGQGLEWMGWISPNSSTTLYAQKFRGRVTLTRDTSVSTAYMELSGLDSDDTALYFCARGGRLAGSTVFTPAFEYWGRGTMVTVSSGGGGSGGGGSGGGGSAQAVLTQPSSVSEAPRQRVTISCSGSSSNIGNNAVKWYQQLPGKAPKLLIYYDDLLPSGVSDRFSGSKSGTSASLAISGLQSEDEADYYCAAWDDSLNGYVFGTGTKVTVLG
B3: APRIL (Tumor Necrosis Factor Delta), human (ligand)
chain: T1 sequence
notes: Soluble purified APRIL and FLAG-tagged APRIL were used in the selections; also called TNF-delta; human APRIL
B4: A024G01 (scFv)
scFv: EVQLVQSGAEVKKPGSSVKVSCKASGGTLSSDSITWVRQAPGQGLEWVGGLIPALGTANYAQKFQGRVTMTADRSTGTAYMELRSLKFDDTAVYYCARVSRTSYYDVLTDNNRYSYYMDVWGKGTLVTVSSGGGGSGGGGSGGGGSAHVILTQPPSVSVSPTQTATITCSGDHLGRKSLSWYQQKPGQSPVLVIYEDFKRPSGIPERFSASNSGYTATLTISGTQAMDEADYYCQAWDNRAVVFGGGTKLTVLG

How the values were obtained:
[1] = biological target: B3; experiment: Title of Table 1; scFv identified by phage display selection and phage ELISA (Example 1)
[2] = biological target: T1, biotinylated APRIL; experiment: receptor binding inhibition assay: scFv titrated with bio-APRIL (50 ng/ml); blocked binding of bio-APRIL to plate-coated TACI fusion protein; streptavidin Delfia, fluorescence counts
Experimental: (§1) APRIL binds to BCMA with higher affinity than its binds to TACI so, inhibition of biotinylated APRIL (bio-APRIL) binding to BCMA can be used to screen selection outputs as periplasmic extracts for neutralizers and then assess potency of the positives as purified scFvs. To perform this assay, each well of a black 96 well flat-bottomed plate (Costar) was coated with 1.25 ng BCMA fusion protein overnight at 4° C. The wells were blocked with 3% milk in PBS for an hour at room temperature. ScFv were then added in the presence of 5 ng/ml biotinylated APRIL for 90 minutes at room temperature. Binding of biotinylated APRIL was detected via streptavidin Delfia (Wallac) added at a 1:1000 dilution in Delfia assay buffer (Wallac). After an hour at room temperature this was read on a Wallac 1420 workstation at 620 nm.
(§2) An assay similar to that described above can also be used to test if anti-APRIL antibodies of the invention are able to inhibit binding of bio-APRIL to TACI. In this case, the plate was coated with 2.5 ng TACI fusion protein per well and scFv were added in the presence of 50 ng/ml biotinylated APRIL instead of 5 ng/ml. Otherwise, the method was identical to that for the BCMA:bio-APRIL assay.

[3] = biological target: T1, biotinylated APRIL; experiment: receptor binding inhibition assay: scFv titrated with bio-APRIL (5 ng/ml); blocked binding of bio-APRIL to plate-coated BCMA fusion protein; streptavidin Delfia, fluorescence counts
Experimental: as §1

[4] = biological target: T1, biotinylated APRIL; experiment: scFv inhibition of bio-APRIL (5 ng/ml) binding to coated BCMA fusion protein, streptavidin-DELFIA
Experimental: as §1

[5] = biological target: T1, biotinylated APRIL; experiment: scFv inhibition of bio-APRIL (50 ng/ml) binding to coated TACI fusion protein, streptavidin-DELFIA
Experimental: as §1, §2

[6] = biological target: T2, TACI; experiment: Specificity phage ELISA (scFv on phage, anti-M13-HRP, A450)
Experimental: (§3) Flexible 96-well plates (Falcon) were coated overnight at 4° C. with each antigen (1 μg/ml). All antigens were coated in PBS. After coating, the solutions were removed from the wells, and the plates were blocked for 1 hour at room temperature in MPBS. The plates were washed 3 times with PBS and then 50 μl of pre-blocked phage was added to each well. The plates were incubated at room temperature for 1 hour and then washed with 3 changes of PBST followed by 3 changes of PBS.
(§4) To each well, 50 μl of an anti-M13-HRP conjugate (Pharmacia) at a 1 in 5000 dilution in MPBS was added and the plates incubated at room temperature for 1 hour. Each plate was washed three times with PBST followed by three times with PBS.
(§5) Fifty μl of TMB substrate was then added to each well, and incubated at room temperature for 30 minutes or until color development. The reaction was stopped by the addition of 25 μl of 0.5 M H₂SO₄. The signal generated was measured by reading the absorbance at 450 nm (A₄₅₀) using a microtitre plate reader (Bio-Rad 3550).

[7] = biological target: T3, LIGHT; experiment: as above
Experimental: as §3, §4, §5

[8] = biological target: T7, BSA (UniProt P02769 25-607); experiment: as above
T7 construct: Unrelated control antigen coated at 1 µg/ml in the phage ELISAs
Experimental: as §3, §4, §5

[9] = biological target: T4, BCMA; experiment: as above
Experimental: as §3, §4, §5

[10] = biological target: T8, BLyS (Homo sapiens (Human), UniProt Q9Y275 134-285); experiment: as above
T8 construct: also called Neutrokine-alpha
Experimental: as §3, §4, §5

[11] = biological target: T9, TNF-α (Homo sapiens (Human), UniProt P01375 77-233); experiment: as above
T9 construct: also called TNF-alpha
Experimental: as §3, §4, §5

[12] = biological target: T5, TACI fusion protein; experiment: receptor binding inhibition assay: unlabelled APRIL titrated against bio-APRIL (50 ng/ml, the competitor) for binding to plate-coated TACI fusion protein; streptavidin Delfia, fluorescence counts
Experimental: as §1, §2

[13] = biological target: T5, TACI fusion protein; experiment: Unlabelled APRIL titrated against 50 ng/ml bio-APRIL for binding to coated TACI fusion protein, streptavidin-DELFIA; inhibition was only partial
Experimental: as §1, §2

[14] = biological target: T6, BCMA fusion protein; experiment: Unlabelled APRIL titrated against 5 ng/ml bio-APRIL for binding to coated BCMA fusion protein, streptavidin-DELFIA
Experimental: as §1

[15] = biological target: T6, BCMA fusion protein; experiment: receptor binding inhibition assay: unlabelled APRIL titrated against bio-APRIL (5 ng/ml, the competitor) for binding to plate-coated BCMA fusion protein; streptavidin Delfia, fluorescence counts
Experimental: as §1

[16] = biological target: T1, biotinylated APRIL; experiment: scFv inhibition of bio-APRIL (50 ng/ml) binding to coated TACI fusion protein, streptavidin-DELFIA; partial inhibition; unit cell reads 'nM (1)'
Experimental: as §1, §2

[17] = biological target: T1, biotinylated APRIL; experiment: scFv inhibition of bio-APRIL (5 ng/ml) binding to coated BCMA fusion protein, streptavidin-DELFIA; partial inhibition; unit cell reads 'nM (3)'
Experimental: as §1

T7 sequence (P02769 25-607 limits assumed): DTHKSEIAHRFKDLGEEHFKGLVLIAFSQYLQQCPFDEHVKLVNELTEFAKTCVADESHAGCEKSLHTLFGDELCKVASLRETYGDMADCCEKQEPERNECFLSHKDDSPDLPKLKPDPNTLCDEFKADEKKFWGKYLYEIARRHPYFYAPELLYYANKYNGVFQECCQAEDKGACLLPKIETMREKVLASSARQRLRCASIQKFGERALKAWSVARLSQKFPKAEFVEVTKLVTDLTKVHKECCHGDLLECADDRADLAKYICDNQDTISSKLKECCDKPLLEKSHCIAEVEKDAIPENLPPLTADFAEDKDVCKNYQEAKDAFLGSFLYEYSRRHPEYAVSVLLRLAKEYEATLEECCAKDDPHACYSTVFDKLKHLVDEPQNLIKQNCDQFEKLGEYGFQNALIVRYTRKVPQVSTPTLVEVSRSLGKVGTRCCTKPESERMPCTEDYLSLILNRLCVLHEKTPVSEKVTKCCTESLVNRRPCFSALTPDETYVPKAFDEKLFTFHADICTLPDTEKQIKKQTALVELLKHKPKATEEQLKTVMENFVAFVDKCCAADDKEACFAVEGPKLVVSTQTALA
T8 sequence (Q9Y275 134-285 limits assumed): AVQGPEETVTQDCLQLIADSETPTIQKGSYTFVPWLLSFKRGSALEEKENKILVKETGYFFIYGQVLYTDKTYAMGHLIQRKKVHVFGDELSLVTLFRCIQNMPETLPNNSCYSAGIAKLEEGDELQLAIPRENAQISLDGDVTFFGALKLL
T9 sequence (P01375 77-233 limits assumed): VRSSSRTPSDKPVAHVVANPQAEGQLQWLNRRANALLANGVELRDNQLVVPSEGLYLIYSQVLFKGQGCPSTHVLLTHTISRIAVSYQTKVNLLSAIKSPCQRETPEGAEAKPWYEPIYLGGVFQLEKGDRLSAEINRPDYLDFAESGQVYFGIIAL

Binder: B1
binding result [1]: binds

Binder: B2
IC50 [2]: 7 nM | IC50 [3]: 10 nM | IC50 [4]: 4.3 nM | IC50 [5]: 10 nM | binding result [6]: no binding (tested: antigen coated at 1 µg/ml) | binding result [7]: no binding (tested: antigen coated at 1 µg/ml) | binding result [8]: no binding (tested: antigen coated at 1 µg/ml) | binding result [9]: no binding (tested: antigen coated at 1 µg/ml) | binding result [10]: no binding (tested: antigen coated at 1 µg/ml) | binding result [11]: no binding (tested: antigen coated at 1 µg/ml)

Binder: B3
IC50 [12]: 0.165 nM | IC50 [13]: 1.3 nM | IC50 [14]: 0.048 nM | IC50 [15]: 0.043 nM

Binder: B4
IC50 [16]: 4 nM | IC50 [17]: 19 nM
